Measurements from paper PMC8557139, “Characterization of a thermotolerant aryl-alcohol oxidase from Moesziomyces antarcticus oxidizing 5-hydroxymethyl-2-furancarboxylic acid” (Applied Microbiology and Biotechnology, 2021).

Experiments:
MaAAO [1] = biological target: T1, MaAAO (Moesziomyces antarcticus, UniProt A0A081CNK9); assay: UV/Vis spectrum of native and heat-denatured enzyme; type: binding; details: non-covalently bound
T1 construct: gene PAN0_057d6495; expressed with native signal peptide, secreted from Pichia pastoris X-33 (pPICZA); purified; non-covalent FAD; codon-optimised synthetic gene
T1 sequence (A0A081CNK9 20-638): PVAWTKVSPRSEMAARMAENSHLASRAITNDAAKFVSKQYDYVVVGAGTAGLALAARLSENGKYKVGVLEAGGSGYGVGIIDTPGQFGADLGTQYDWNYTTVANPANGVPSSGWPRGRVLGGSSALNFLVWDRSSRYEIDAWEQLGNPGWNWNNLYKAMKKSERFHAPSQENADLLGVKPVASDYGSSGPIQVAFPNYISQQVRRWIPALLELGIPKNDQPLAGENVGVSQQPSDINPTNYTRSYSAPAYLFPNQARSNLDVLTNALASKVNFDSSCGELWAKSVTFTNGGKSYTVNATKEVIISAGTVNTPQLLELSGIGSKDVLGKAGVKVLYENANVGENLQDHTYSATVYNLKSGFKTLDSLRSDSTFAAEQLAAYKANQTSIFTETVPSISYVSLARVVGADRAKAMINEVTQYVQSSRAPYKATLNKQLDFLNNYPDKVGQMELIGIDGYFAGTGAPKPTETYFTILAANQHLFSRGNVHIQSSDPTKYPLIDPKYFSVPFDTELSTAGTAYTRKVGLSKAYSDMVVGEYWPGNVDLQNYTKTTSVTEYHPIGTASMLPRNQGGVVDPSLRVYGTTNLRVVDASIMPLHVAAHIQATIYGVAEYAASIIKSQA

MaAAO [2] = biological target: T1, MaAAO; assay: coupled […],6-DMP-HRP assay; substrate excess inhibition fit; type: biochemical; details: co-substrate O2, potassium phosphate pH 6.0, 25 °C
MaAAO [3] = biological target: T1, MaAAO; assay: m-anisaldehyde formation at […] nm; substrate excess inhibition fit; type: biochemical; details: co-substrate O2, 100 mM phosphate pH 6.0, 25 °C
MaAAO [4] = biological target: T1, MaAAO; assay: benzaldehyde formation at […] nm; substrate excess inhibition fit; type: biochemical; details: co-substrate O2, 100 mM phosphate pH 6.0, 25 °C
purified protein [5] = substrate: COc1ccc(CO)cc1OC; assay: purified protein; type: biochemical, Moesziomyces antarcticus; details: co-substrate O2, 100 mM phosphate pH 6.0, 25 °C
purified protein [6] = substrate: OCc1ccccc1; assay: purified protein; type: biochemical, Moesziomyces antarcticus; details: co-substrate O2, 100 mM phosphate pH 6.0, 25 °C, fit with substrate excess inhibition
purified protein [7] = substrate: C=C(C)[C@@H]1CC=C(CO)CC1; assay: purified protein; type: biochemical, Moesziomyces antarcticus; details: co-substrate O2, 50 mM (text: 100 mM) potassium phosphate pH 6.0, 25 °C
purified protein [8] = substrate: COc1ccc(CO)cc1O; assay: purified protein; type: biochemical, Moesziomyces antarcticus; details: co-substrate O2, 100 mM phosphate pH 6.0, 25 °C
purified protein [9] = substrate: OC/C=C/c1ccccc1; assay: purified protein; type: biochemical, Moesziomyces antarcticus; details: co-substrate O2, 100 mM phosphate pH 6.0, 25 °C
purified protein [10] = substrate: C/C=C/C=C/CO; assay: purified protein; type: biochemical, Moesziomyces antarcticus; details: co-substrate O2, 100 mM phosphate pH 6.0, 25 °C
purified protein [11] = substrate: COc1ccc(CO)c(OC)c1; assay: purified protein; type: biochemical, Moesziomyces antarcticus; details: co-substrate O2, 100 mM phosphate pH 6.0, 25 °C
purified protein [12] = substrate: O=Cc1ccc(CO)o1; assay: purified protein; type: biochemical, Moesziomyces antarcticus; details: co-substrate O2, 50 mM (text: 100 mM) potassium phosphate pH 6.0, 25 °C
purified protein [13] = substrate: Nc1cccc(CO)c1; assay: purified protein; type: biochemical, Moesziomyces antarcticus; details: co-substrate O2, 50 mM (text: 100 mM) potassium phosphate pH 6.0, 25 °C, fit with substrate excess inhibition
purified protein [14] = substrate: OCc1ccc2c(c1)OCO2; assay: purified protein; type: biochemical, Moesziomyces antarcticus; details: co-substrate O2, 100 mM phosphate pH 6.0, 25 °C
purified protein [15] = substrate: COc1cc(CO)ccc1O; assay: purified protein; type: biochemical, Moesziomyces antarcticus; details: co-substrate O2, 100 mM phosphate pH 6.0, 25 °C

For `Cc1cc2nc3c(=O)[nH]c(=O)nc-3n(C[C@H](O)[C@H](O)[C@H](O)COP(=O)(O)OP(=O)(O)OC[C@H]3O[C@@H](n4cnc5c(N)ncnc54)[C@H](O)[C@@H]3O)c2cc1C` [FAD], which “UV/Vis spectrum of native and heat-denatured enzyme” value (MaAAO [1]) is on record?
Its value is “confirmed that MaAAO contains a non-covalently bound FAD cofactor”.

`Nc1cccc(CO)c1` [3-Aminobenzyl alcohol] was tested. Which KIU (MaAAO [2]) did it give?
Its KIU is 3.27 ± 0.98 mM.

For `COc1cccc(CO)c1` [m-Anisyl alcohol], which KIU (MaAAO [3]) is on record?
The KIU was 2.09 ± 0.33 mM.

Which KIU (MaAAO [4]) does the source give for `OCc1ccccc1` [Benzyl alcohol] here?
The KIU was 1.39 ± 0.35 mM.

B1: MaAAO (Moesziomyces antarcticus) (protein)
chain: PVAWTKVSPRSEMAARMAENSHLASRAITNDAAKFVSKQYDYVVVGAGTAGLALAARLSENGKYKVGVLEAGGSGYGVGIIDTPGQFGADLGTQYDWNYTTVANPANGVPSSGWPRGRVLGGSSALNFLVWDRSSRYEIDAWEQLGNPGWNWNNLYKAMKKSERFHAPSQENADLLGVKPVASDYGSSGPIQVAFPNYISQQVRRWIPALLELGIPKNDQPLAGENVGVSQQPSDINPTNYTRSYSAPAYLFPNQARSNLDVLTNALASKVNFDSSCGELWAKSVTFTNGGKSYTVNATKEVIISAGTVNTPQLLELSGIGSKDVLGKAGVKVLYENANVGENLQDHTYSATVYNLKSGFKTLDSLRSDSTFAAEQLAAYKANQTSIFTETVPSISYVSLARVVGADRAKAMINEVTQYVQSSRAPYKATLNKQLDFLNNYPDKVGQMELIGIDGYFAGTGAPKPTETYFTILAANQHLFSRGNVHIQSSDPTKYPLIDPKYFSVPFDTELSTAGTAYTRKVGLSKAYSDMVVGEYWPGNVDLQNYTKTTSVTEYHPIGTASMLPRNQGGVVDPSLRVYGTTNLRVVDASIMPLHVAAHIQATIYGVAEYAASIIKSQA
notes: expressed with native signal peptide, secreted from Pichia pastoris X-33 (pPICZA); purified; non-covalent FAD; codon-optimised synthetic gene
How did the Km (purified protein [5]) turn out when B1 was run?
Its Km is 119.0 ± 7.0 µM.

What about the kcat (purified protein [5]) of the same molecule?
The kcat was 11.7 s⁻¹.

What about the kcat/Km (purified protein [5]) of the same molecule?
Its kcat/Km is 98000 M⁻¹ s⁻¹.

What about the kcat (purified protein [6]) of the same molecule?
The kcat was 11.2 s⁻¹.

And the kcat/Km (purified protein [6])?
The kcat/Km was 745000 M⁻¹ s⁻¹.

What about the Km (purified protein [7]) of the same molecule?
Its Km is 23.7 ± 1.7 µM.

And the kcat (purified protein [7])?
Its kcat is 9.2 s⁻¹.

What about the kcat/Km (purified protein [7]) of the same molecule?
Its kcat/Km is 387000 M⁻¹ s⁻¹.

What about the Km (purified protein [8]) of the same molecule?
Its Km is 60.9 ± 6.7 µM.

And the kcat (purified protein [8])?
Its kcat is 9.6 s⁻¹.

And the kcat/Km (purified protein [8])?
Its kcat/Km is 158000 M⁻¹ s⁻¹.

And the Km (purified protein [9])?
Its Km is 26.9 µM.

And the kcat (purified protein [9])?
The kcat was 8.9 s⁻¹.

What about the kcat/Km (purified protein [9]) of the same molecule?
The kcat/Km was 332000 M⁻¹ s⁻¹.

And the Km (purified protein [10])?
The Km was 26.5 ± 1.7 µM.

And the kcat (purified protein [10])?
The kcat was 11.5 s⁻¹.

What about the kcat/Km (purified protein [10]) of the same molecule?
Its kcat/Km is 435000 M⁻¹ s⁻¹.

And the Km (purified protein [11])?
Its Km is 582 µM.

What about the Km (purified protein [12]) of the same molecule?
The Km was 341 ± 20 µM.

And the kcat (purified protein [12])?
Its kcat is 5.4 s⁻¹.

And the kcat/Km (purified protein [12])?
The kcat/Km was 15700 M⁻¹ s⁻¹.

What about the Km (purified protein [13]) of the same molecule?
Its Km is 1.74 ± 0.24 µM.

And the kcat (purified protein [13])?
Its kcat is 6.4 s⁻¹.

What about the kcat/Km (purified protein [13]) of the same molecule?
The kcat/Km was 3.67e+06 M⁻¹ s⁻¹.

And the Km (purified protein [14])?
Its Km is 12.2 ± 1.0 µM.

What about the kcat (purified protein [14]) of the same molecule?
Its kcat is 11.3 s⁻¹.

And the kcat/Km (purified protein [14])?
The kcat/Km was 926000 M⁻¹ s⁻¹.

And the Km (purified protein [15])?
Its Km is 30.0 ± 2.4 µM.

And the kcat (purified protein [15])?
The kcat was 10.6 s⁻¹.

What about the kcat/Km (purified protein [15]) of the same molecule?
Its kcat/Km is 354000 M⁻¹ s⁻¹.
